This is an account of results in patent US20190153108A1 (AbbVie / Abbott, published 2019).

In the test the target is human Epidermal Growth Factor Receptor (huEGFR) over-expressed in mcl-1-/- mouse embryonic fibroblasts (human, UniProt P00533 25-1210). As to the kind of experiment: cell-based or functional assay.

B1: AbA-CZ (antibody, V domains shown)
VH: EVQLQESGPGLVKPSQTLSLTCTVSGYSISRDFAWNWIRQPPGKGLEWMGYISYNGNTRYQPSLKSRITISRDTSKNQFFLKLNSVTAADTATYYCVTASRGFPYWGQGTLVTVSS
VL: DIQMTQSPSSMSVSVGDRVTITCHSSQDINSNIGWLQQKPGKSFKGLIYHGTNLDDGVPSRFSGSGSGTDYTLTISSLQPEDFATYYCVQYAQFPWTFGGGTKLEIKR
modifications: synthon CZ on reduced interchain Cys
B1: the “huEGFR^+ mcl-1^-/- MEF EC50” value turned out to be 0.3 nM.

B2: AbA-AAA (antibody, V domains shown)
VH: EVQLQESGPGLVKPSQTLSLTCTVSGYSISRDFAWNWIRQPPGKGLEWMGYISYNGNTRYQPSLKSRITISRDTSKNQFFLKLNSVTAADTATYYCVTASRGFPYWGQGTLVTVSS
VL: DIQMTQSPSSMSVSVGDRVTITCHSSQDINSNIGWLQQKPGKSFKGLIYHGTNLDDGVPSRFSGSGSGTDYTLTISSLQPEDFATYYCVQYAQFPWTFGGGTKLEIKR
modifications: synthon AAA on reduced interchain Cys
In the case of B2, the “huEGFR^+ mcl-1^-/- MEF EC50” value is 220 nM.

B3: AbA-SE (antibody, V domains shown)
VH: EVQLQESGPGLVKPSQTLSLTCTVSGYSISRDFAWNWIRQPPGKGLEWMGYISYNGNTRYQPSLKSRITISRDTSKNQFFLKLNSVTAADTATYYCVTASRGFPYWGQGTLVTVSS
VL: DIQMTQSPSSMSVSVGDRVTITCHSSQDINSNIGWLQQKPGKSFKGLIYHGTNLDDGVPSRFSGSGSGTDYTLTISSLQPEDFATYYCVQYAQFPWTFGGGTKLEIKR
modifications: synthon SE on reduced interchain Cys
Turning to B3, the “huEGFR^+ mcl-1^-/- MEF EC50” value is 105 nM.

B4: AbA-XW (antibody, V domains shown)
VH: EVQLQESGPGLVKPSQTLSLTCTVSGYSISRDFAWNWIRQPPGKGLEWMGYISYNGNTRYQPSLKSRITISRDTSKNQFFLKLNSVTAADTATYYCVTASRGFPYWGQGTLVTVSS
VL: DIQMTQSPSSMSVSVGDRVTITCHSSQDINSNIGWLQQKPGKSFKGLIYHGTNLDDGVPSRFSGSGSGTDYTLTISSLQPEDFATYYCVQYAQFPWTFGGGTKLEIKR
modifications: synthon XW on reduced interchain Cys
On to B4, for which the “huEGFR^+ mcl-1^-/- MEF EC50” value worked out at 32 nM.

B5: AbB-SR (antibody, V domains shown)
VH: EVQLQESGPGLVKPSQTLSLTCTVSGYSISNDFAWNWIRQPPGKGLEWMGYISYKGNTRYQPSLKSRITISRDTSKNQFFLKLNSVTAADTATYYCVTASRGFPWWGQGTLVTVSS
VL: DIQMTQSPSSMSVSVGDRVTITCHSSQDINSNIGWLQQKPGKSFKGLIYHGTNLDDGVPSRFSGSGSGTDYTLTISSLQPEDFATYYCVQYAQFPWTFGGGTKLEIKR
modifications: synthon SR on reduced interchain Cys
Regarding B5, the “huEGFR^+ mcl-1^-/- MEF EC50” value worked out at 7 nM.

B6: AbB-ZT (antibody, V domains shown)
VH: EVQLQESGPGLVKPSQTLSLTCTVSGYSISNDFAWNWIRQPPGKGLEWMGYISYKGNTRYQPSLKSRITISRDTSKNQFFLKLNSVTAADTATYYCVTASRGFPWWGQGTLVTVSS
VL: DIQMTQSPSSMSVSVGDRVTITCHSSQDINSNIGWLQQKPGKSFKGLIYHGTNLDDGVPSRFSGSGSGTDYTLTISSLQPEDFATYYCVQYAQFPWTFGGGTKLEIKR
modifications: synthon ZT on reduced interchain Cys
As for B6, the “huEGFR^+ mcl-1^-/- MEF EC50” value turned out to be 8.9 nM.

B7: AbB-SE (antibody, V domains shown)
VH: EVQLQESGPGLVKPSQTLSLTCTVSGYSISNDFAWNWIRQPPGKGLEWMGYISYKGNTRYQPSLKSRITISRDTSKNQFFLKLNSVTAADTATYYCVTASRGFPWWGQGTLVTVSS
VL: DIQMTQSPSSMSVSVGDRVTITCHSSQDINSNIGWLQQKPGKSFKGLIYHGTNLDDGVPSRFSGSGSGTDYTLTISSLQPEDFATYYCVQYAQFPWTFGGGTKLEIKR
modifications: synthon SE on reduced interchain Cys
On to B7, for which the “huEGFR^+ mcl-1^-/- MEF EC50” value amounted to 39 nM.

B8: AbA-YY (antibody, V domains shown)
VH: EVQLQESGPGLVKPSQTLSLTCTVSGYSISRDFAWNWIRQPPGKGLEWMGYISYNGNTRYQPSLKSRITISRDTSKNQFFLKLNSVTAADTATYYCVTASRGFPYWGQGTLVTVSS
VL: DIQMTQSPSSMSVSVGDRVTITCHSSQDINSNIGWLQQKPGKSFKGLIYHGTNLDDGVPSRFSGSGSGTDYTLTISSLQPEDFATYYCVQYAQFPWTFGGGTKLEIKR
modifications: synthon YY on reduced interchain Cys
For the molecule B8, the “huEGFR^+ mcl-1^-/- MEF EC50” value was found to be 460 nM.

B9: AbA-SR (antibody, V domains shown)
VH: EVQLQESGPGLVKPSQTLSLTCTVSGYSISRDFAWNWIRQPPGKGLEWMGYISYNGNTRYQPSLKSRITISRDTSKNQFFLKLNSVTAADTATYYCVTASRGFPYWGQGTLVTVSS
VL: DIQMTQSPSSMSVSVGDRVTITCHSSQDINSNIGWLQQKPGKSFKGLIYHGTNLDDGVPSRFSGSGSGTDYTLTISSLQPEDFATYYCVQYAQFPWTFGGGTKLEIKR
modifications: synthon SR on reduced interchain Cys
In the case of B9, the “huEGFR^+ mcl-1^-/- MEF EC50” value was found to be 5.9 nM.

B10: AbB-KZ (antibody, V domains shown)
VH: EVQLQESGPGLVKPSQTLSLTCTVSGYSISNDFAWNWIRQPPGKGLEWMGYISYKGNTRYQPSLKSRITISRDTSKNQFFLKLNSVTAADTATYYCVTASRGFPWWGQGTLVTVSS
VL: DIQMTQSPSSMSVSVGDRVTITCHSSQDINSNIGWLQQKPGKSFKGLIYHGTNLDDGVPSRFSGSGSGTDYTLTISSLQPEDFATYYCVQYAQFPWTFGGGTKLEIKR
modifications: synthon KZ on reduced interchain Cys
Consider B10, for which the “huEGFR^+ mcl-1^-/- MEF EC50” value was 55 nM.

B11: AbB-ZZ (antibody, V domains shown)
VH: EVQLQESGPGLVKPSQTLSLTCTVSGYSISNDFAWNWIRQPPGKGLEWMGYISYKGNTRYQPSLKSRITISRDTSKNQFFLKLNSVTAADTATYYCVTASRGFPWWGQGTLVTVSS
VL: DIQMTQSPSSMSVSVGDRVTITCHSSQDINSNIGWLQQKPGKSFKGLIYHGTNLDDGVPSRFSGSGSGTDYTLTISSLQPEDFATYYCVQYAQFPWTFGGGTKLEIKR
modifications: synthon ZZ on reduced interchain Cys
Regarding B11, the “huEGFR^+ mcl-1^-/- MEF EC50” value amounted to 7.4 nM.

B12: AbA-KZ (antibody, V domains shown)
VH: EVQLQESGPGLVKPSQTLSLTCTVSGYSISRDFAWNWIRQPPGKGLEWMGYISYNGNTRYQPSLKSRITISRDTSKNQFFLKLNSVTAADTATYYCVTASRGFPYWGQGTLVTVSS
VL: DIQMTQSPSSMSVSVGDRVTITCHSSQDINSNIGWLQQKPGKSFKGLIYHGTNLDDGVPSRFSGSGSGTDYTLTISSLQPEDFATYYCVQYAQFPWTFGGGTKLEIKR
modifications: synthon KZ on reduced interchain Cys
Take B12: the “huEGFR^+ mcl-1^-/- MEF EC50” value was found to be 152 nM.

B13: AbB-YG (antibody, V domains shown)
VH: EVQLQESGPGLVKPSQTLSLTCTVSGYSISNDFAWNWIRQPPGKGLEWMGYISYKGNTRYQPSLKSRITISRDTSKNQFFLKLNSVTAADTATYYCVTASRGFPWWGQGTLVTVSS
VL: DIQMTQSPSSMSVSVGDRVTITCHSSQDINSNIGWLQQKPGKSFKGLIYHGTNLDDGVPSRFSGSGSGTDYTLTISSLQPEDFATYYCVQYAQFPWTFGGGTKLEIKR
modifications: synthon YG on reduced interchain Cys
B13: the “huEGFR^+ mcl-1^-/- MEF EC50” value was 3.3 nM.

B14: AbB-XW (antibody, V domains shown)
VH: EVQLQESGPGLVKPSQTLSLTCTVSGYSISNDFAWNWIRQPPGKGLEWMGYISYKGNTRYQPSLKSRITISRDTSKNQFFLKLNSVTAADTATYYCVTASRGFPWWGQGTLVTVSS
VL: DIQMTQSPSSMSVSVGDRVTITCHSSQDINSNIGWLQQKPGKSFKGLIYHGTNLDDGVPSRFSGSGSGTDYTLTISSLQPEDFATYYCVQYAQFPWTFGGGTKLEIKR
modifications: synthon XW on reduced interchain Cys
Consider B14, for which the “huEGFR^+ mcl-1^-/- MEF EC50” value turned out to be 0.65 nM.

B15: AbA-YG (antibody, V domains shown)
VH: EVQLQESGPGLVKPSQTLSLTCTVSGYSISRDFAWNWIRQPPGKGLEWMGYISYNGNTRYQPSLKSRITISRDTSKNQFFLKLNSVTAADTATYYCVTASRGFPYWGQGTLVTVSS
VL: DIQMTQSPSSMSVSVGDRVTITCHSSQDINSNIGWLQQKPGKSFKGLIYHGTNLDDGVPSRFSGSGSGTDYTLTISSLQPEDFATYYCVQYAQFPWTFGGGTKLEIKR
modifications: synthon YG on reduced interchain Cys
Consider B15, for which the “huEGFR^+ mcl-1^-/- MEF EC50” value is 6.4 nM.
